Publication PMC10065082 (The Journal of Clinical Investigation, 2023)

B1: hNaV1.6CTD peptide (residues 1891-1918 of human NaV1.6) (peptide)
peptide: RRKQEEVSAVVLQRAYRGHLARRGFICK
notes: Carboxy terminal domain peptide with the IQ motif of human NaV1.6, residues 1891-1918; source: synthetic peptide (LifeTein), at least 90% purity by HPLC
B2: hNaV1.6CTD peptide (residues 1891-1918 of human NaV1.6) (peptide)
peptide: RRKQEEVSAVVLQRAYRGHLARRGFICK
notes: human NaV1.6 carboxy terminal domain stretch with the IQ motif, residues 1891-1918; source: synthetic peptide (LifeTein), at least 90% purity by HPLC

Experiments:
Conditions in all cases: both partners purified
wild-type calmodulin [1] = target: T1, wild-type calmodulin (UniProt P0DP23 1-149); assay: ITC; in the presence of 10 uM free Ca2+; NaV1.6CTD peptide and WT CaM or D96V-CaM
T1 construct: Calmodulin (CaM), recombinant; GenBank M19381.1 (mouse CaM I) is printed only for the transgene of the mice, not for the recombinant protein; also called WT CaM; CaM

wild-type calmodulin [2] = target: T1, wild-type calmodulin; assay: ITC; 0 Ca2+; Microcal VP-ITC, 25°C, 10 mM Mops, 2 mM EGTA, 1 mM TCEP, 150 mM KCl, pH 7; NaV1.5CTD (55-75 uM) or NaV1.6CTD (73-110 uM) peptides and WT CaM or D96V-CaM (5-15 uM); 28 injections; fitted to a model of 1 binding site per monomer
WT calmodulin [3] = target: T2, WT calmodulin (UniProt P0DP23 1-149); assay: ITC; Microcal VP-ITC, 25°C, 10 mM Mops, 2 mM EGTA, 1 mM TCEP, 150 mM KCl, 1.93 mM CaCl2, pH 7, 10 uM free Ca2+; NaV1.6CTD (73-110 uM) peptide and WT-CaM (12 uM) or D96V-CaM (16 uM); fitted to a one-binding site per monomer model
T2 construct: calmodulin, recombinant; Legends say the recombinant CaMs were not FLAG tagged in the patch-clamp experiments; nothing is said of tags for ITC; also called WT CaM; WT-CaM

WT calmodulin [4] = target: T2, WT calmodulin; assay: ITC; Microcal VP-ITC, 25°C, 10 mM Mops, 2 mM EGTA, 1 mM TCEP, 150 mM KCl, pH 7, 0 Ca2+; NaV1.5CTD (55-75 uM) or NaV1.6CTD (73-110 uM) peptide and WT CaM or D96V-CaM (5-15 uM); fitted to a model of 1 binding site per monomer

Binder	Kd (wild-type calmodulin [1]) [nM]	Kd (wild-type calmodulin [2]) [nM]	stoichiometry N (WT calmodulin [3])	stoichiometry N (WT calmodulin [4])
B1	132	243	–	–
B2	–	–	1	1
